# Experimental data taken from patent publication US20260335456A1, “ANTIBODY-DRUG CONJUGATE HAVING CAMPTOTHECIN-BASED DRUG LINKED TO ANTIBODY HAVING LOW ANTIGEN-BINDING AFFINITY THROUGH LINKER” (PINOTBIO, INC., priority 2022, published 2026).
# Like-named read-outs stand apart in the source and are kept apart here.
# Tests used:
# EGFR [1] = settings: cited from earlier work
# [2] = tested on: normal skin and kidney cells; settings: compared with cetuximab; cited from earlier work
# patients [3] = settings: cited from earlier work
# [4] = tested on: MDA-MB-453 (HER2++) and FaDu (HER2+) cell lines; experiment: Cell viability test in MDA-MB-453 and FaDu; assay type: cell-based; settings: 3 days, FIG. 10
# Protocol: Cell viability assay was performed on MDA-MB-453 (HER2++) cell line and FaDu (HER2+) cell line in the same manner as Example 1-2.
# [5] = PBX-7016 pharmacokinetic profile in NOD SCID mice; assay type: in vivo
# FaDu cell line = experiment: Western blot of DDX5 and anti-apoptotic proteins in FaDu; assay type: cell-based; settings: 0, 10, 100 nM
# Protocol: 1-1: Confirmation of Suppressive Activity of Expression of Cancer-Related Survival Genes of DDX5, Survivin, Mcl-1, XIAP and cIAP2 Through Western Blot
# 200,000 FaDu cell lines were seeded per well in a 6-well plate and incubated at constant temperature (37 °C, 5% CO2). […] It was incubated at constant temperature (37 °C, 5% CO2) for 24 hours. The well was treated with 100 μL of RIPA buffer dissolved in protease inhibitor cocktail. […] Protein concentration was determined through protein assay.
# Electrophoresis was performed on the gel at 60V.
# 7 sheets of activated filter paper, PVDF membrane, gel and 7 sheets of filter paper were placed in order in the cassettes of the Trans-Blot® Turbo™ Transfer System, and the lid was closed, and after being inserted into the machine, the protocol started.
# The transferred membrane was immersed in blocking buffer and incubated at constant temperature (RT, 1h). Next, it was incubated at 4 °C overnight in primary antibody solution. It was rinsed with TBST buffer for 3 minutes (repeated 3 times). Incubation was performed (RT, 1h) in a secondary antibody solution conjugated with HRP. It was rinsed with TBST buffer for 3 minutes (repeated 3 times).
# After soaking the membrane in the ECL substrate for 3 to 5 minutes, the signal was determined by using the ChemiDoc™ MP Imaging System.
# [6] = Lactone to carboxylate form conversion in pH 7.4; assay type: physicochemical
# Protocol: 3-2. Lactone to Carboxylate Form Conversion in pH 7.4
# Afterwards, it was centrifuged at 4 °C, 2 minutes, and 13,000 RCF conditions, and the supernatant was used as a sample.
# The column used was Cortecs C18 2.7 μm, 4.6×50 mm Column, and analysis was conducted under the following conditions. 1) 20 minutes: 5% B, 2) sample injection, 3) 2 minutes: 5% B, 4) 10 minutes: 5% B→50% B, 5) 1 minute: 50% B.
# In order to measure changes over time, the sample chamber was maintained at 37 °C, and the sample was set to be injected every measurement time. The measurement times were 0, 20, 40, 60, 90, 120, 180, 240, 300, 360, 480, 600 and 720 minutes.
# The content was calculated from the peak area of each lactone and carboxylate. Since the absorption coefficients of lactone and carboxylate are different, the lactone area was obtained by multiplying the carboxylate area by the equation below.
# A549 cell line = experiment: Western blot of DDX5 and anti-apoptotic proteins in A549; assay type: cell-based
# A549 = experiment: Cell viability assay in A549; assay type: cell-based; settings: A549, FIG. 9
# Protocol: After 24 hours, 100 μL of the drug at 9 concentrations (serial dilution of 1/5 from 1,000 nM) was treated with the cells. […] In this case, a control group that was not treated with the drug (drug concentration 0) was also prepared. It was cultured at constant temperature (37 °C, 5% CO2) for 3 or 6 days. 100 μL of CellTiter-Glo reagent (using CellTiter-Glo® Luminescent Cell Viability Assay kit (Promega, G7571)) was added to each well and pipetted. After incubation at constant temperature (RT) for 10 minutes, luminescence was measured.
# liver = settings: versus parent hRS7 IgG; U.S. Pat. No. 9,629,926 B; cited from earlier work
# relapsed glioblastoma = settings: cited from earlier work
# patients [7] = settings: phase 1 studies; cited from earlier work
# EGFR [8] = settings: cited from earlier work; remark: listed apart in the source
# [9] = tested on: various metastatic solid tumors; settings: 8 mg/kg to 18 mg/kg; cited from earlier work
# [10] = tested on: patients treated with Sacituzumab Govitecan; settings: cited from earlier work
# [11] = tested on: cells with an ABCG2 efflux pump; experiment: ABCG2 efflux pump resistance, PBX-001 versus Trodelvy; assay type: cell-based
# [12] = tested on: metastatic epithelial cancers; settings: cited from earlier work
# non-human primate = experiment: PBX-001 non-human primate toxicity study; assay type: in vivo
# FaDu Xenograft model = experiment: PBX-001 in FaDu Xenograft model; assay type: in vivo; settings: DAR 8, FIGS. 12 and 13
# Trop2 = target: T1, Trop2 (Homo sapiens, UniProt P09758); experiment: PBX-001 in vitro and in vivo efficacy versus Trodelvy; settings: FIGS. 11 to 13
# T1 sequence (P09758 27-323): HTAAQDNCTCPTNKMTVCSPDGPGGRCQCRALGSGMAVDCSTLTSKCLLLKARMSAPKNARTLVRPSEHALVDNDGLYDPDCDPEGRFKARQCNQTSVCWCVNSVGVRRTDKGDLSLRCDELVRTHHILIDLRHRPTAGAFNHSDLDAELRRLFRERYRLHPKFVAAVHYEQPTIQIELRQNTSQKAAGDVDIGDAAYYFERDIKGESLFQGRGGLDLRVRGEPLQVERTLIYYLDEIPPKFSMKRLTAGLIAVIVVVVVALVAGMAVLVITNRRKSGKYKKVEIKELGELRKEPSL
compound,measurement,setting,value
panitumumab: antibody drug targeting EGFR,binding affinity relative to nimotuzumab,EGFR [1],more than 10 times
Nimotuzumab: humanized IgG1 EGFR-targeting antibody,binding to normal skin and kidney cells,[2],much less binding than cetuximab
same,side effects severity,patients [3]; humans,only mild to moderate in severity
same,incidence of severe acneiform rash and gastrointestinal mucosal toxicity,patients [3]; patients,much lower incidence
CC[C@@]1(O)C(=O)OCc2c1cc1n(c2=O)Cc2c-1nc1cc3c(c4c1c2[C@@H](NC(=O)[C@@H](C)O)CC4)OCO3 [PBX-7016],IC50 compared to Dxd,[4],IC50 of the same or higher level than Dxd
same,"plasma concentration, individual mice","[5]; IP 1 mg/kg, 4 h, Mouse 4-6",BLOQ
same,"plasma concentration, individual mice","[5]; IP 1 mg/kg, 12 h, Mouse 4-6",BLOQ
same,"plasma concentration, individual mice","[5]; IP 1 mg/kg, 24 h, Mouse 4-6",BLOQ
same,"plasma concentration, individual mice","[5]; IP 1 mg/kg, 48 h, Mouse 4-6",BLOQ
same,"plasma concentration, individual mice","[5]; IV 1 mg/kg, 4 h, Mouse 1-3",BLOQ
same,"plasma concentration, individual mice","[5]; IV 1 mg/kg, 12 h, Mouse 1-3",BLOQ
same,"plasma concentration, individual mice","[5]; IV 1 mg/kg, 24 h, Mouse 1-3",BLOQ
same,"plasma concentration, individual mice","[5]; IV 1 mg/kg, 48 h, Mouse 1-3",BLOQ
same,clearance from the blood,"[5]; intravascular or intraperitoneal, mice",cleared from the blood very quickly
same,DDX5 degradation ranking,FaDu cell line; FaDu and A549,"followed by 7011, 7016 and 7014"
same,expression of anti-apoptotic proteins,"FaDu cell line; Survivin, cIAP2, Mcl-1, XIAP, 24 hours","decrease in the expression of Survivin, cIAP2, Mcl-1 and XIAP as the concentration increased"
same,rate of conversion from lactone to carboxylate form,"[6]; pH 7.4, 37 °C",0.8 % per minute
same,degraded at 3 µM,"[6]; pH 7.4, 37 °C, PBS with 10% DMSO, read-out: carboxylate form formed",> 86%
same,lactone to carboxylate conversion versus reference compounds,"[6]; pH 7.4, reference: exatecan, DXd, SN-38, FL118",faster and at a higher rate than other reference compounds
same,dual mechanism (topoisomerase I inhibition and DDX5 degradation),A549 cell line,dual MoA that acts as a degrader of DDX5 (p68)
same,DDX5 inhibition,A549 cell line; FIGS. 7 and 8,inhibits DDX5 in a concentration-dependent manner
same,"Survivin, Mcl-1 inhibition",A549 cell line; FIGS. 7 and 8,"observed to inhibit Survivin, Mcl-1"
same,comparison with PBX-7014,A549 cell line; FIGS. 7 and 8,worked better than PBX-7014
same,DDX5 degradation ranking,"A549 cell line; FaDu and A549, 0, 10, 100 nM","followed by 7011, 7016 and 7014"
same,efficacy / IC50 in ABCG2-overexpressing cells,A549,still maintained strong efficacy
hRS7-CL2A-SN-38: Trop-2 ADC of hRS7 with CL2A-SN-38,liver uptake,liver,two-fold higher liver uptake
ABT-414: ADC targeting EGFR variant III,monotherapy efficacy,relapsed glioblastoma,promising monotherapy efficacy
ABX-EGF: fully humanized IgG2 monoclonal antibody to EGFR,most common toxicity,patients [7],skin toxicity
same,affinity for EGFR versus cetuximab,EGFR [8],higher affinity for EGFR than cetuximab
Sacituzumab Govitecan: humanized IgG linked to SN-38 through a pH-sensitive linker,dose-limiting toxicity,[9],neutropenia
same,"diarrhea, all grade",[10]; all treated patients,65%
same,"neutropenia, any grade",[10]; all treated patients,61%
same,febrile neutropenia,[10]; patients,7%
same,neutropenic colitis,[10]; patients,0.5%
same,resistance through ABCG2 efflux pump,[11],resistant
same,"anemia, any grade",[12]; 8 mg/kg,38%
same,"anemia, grade 3 or higher",[12]; 8 mg/kg,13%
same,"constipation, any grade",[12]; 8 mg/kg,33%
same,"diarrhea, any grade",[12]; 8 mg/kg,53%
same,"diarrhea, grade 3 or higher",[12]; 8 mg/kg,4%
same,dose reductions,[12]; 8 mg/kg,19%
same,"fatigue, any grade",[12]; 8 mg/kg,61%
same,grade 3 or higher neutropenia after the first dose,[12]; 8 mg/kg,21%
same,"hair loss, any grade",[12]; 8 mg/kg,46%
same,"leukopenia, grade 3 or higher",[12]; 8 mg/kg,6%
same,"nausea, any grade",[12]; 8 mg/kg,59%
same,"neutropenia, any grade",[12]; 8 mg/kg,42%
same,"neutropenia, grade 3 or higher",[12]; 8 mg/kg,30%
same,"vomiting, any grade",[12]; 8 mg/kg,36%
same,"anemia, any grade",[12]; 10 mg/kg,42%
same,"constipation, any grade",[12]; 10 mg/kg,37%
same,"diarrhea, any grade",[12]; 10 mg/kg,62%
same,"diarrhea, grade 3 or higher",[12]; 10 mg/kg,10%
same,dose reductions,[12]; 10 mg/kg,28%
same,"fatigue, any grade",[12]; 10 mg/kg,52%
same,grade 3 or higher neutropenia after the first dose,[12]; 10 mg/kg,47%
same,"hair loss, any grade",[12]; 10 mg/kg,37%
same,"nausea, any grade",[12]; 10 mg/kg,63%
same,"neutropenia, any grade",[12]; 10 mg/kg,58%
same,"neutropenia, grade 3 or higher",[12]; 10 mg/kg,36%
same,"vomiting, any grade",[12]; 10 mg/kg,43%
"PBX-001: ADC of humanized anti-Trop2 antibody hRS7, FL118 and CL2A linker system",safety,non-human primate,excellent safety
same,anticancer efficacy and weight loss,FaDu Xenograft model,excellent anticancer efficacy without weight loss
same,in vitro and in vivo efficacy versus Trodelvy,Trop2,better efficacy than Trodelvy
same,resistance through ABCG2 efflux pump,[11],not affected
